± gives the uncertainty stated by the source.
experiment: amyloid nucleation score (Sup35N fusion, yeast selection) (log enrichment); library NNK1; higher = more nucleation; inactive = no reads after selection
In short: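 Peptides of 20 random codons fused to Sup35N were expressed in psi-negative yeast, induced 24 hours with 100 μM copper sulfate, then grown 7 days at 30°C on medium lacking adenine and uracil. Input and output plasmid inserts were Illumina-sequenced. Nucleation score is the DiMSum log enrichment of output over input reads, centred on the mode score of non-aggregating sequences, excluding sequences with under 100 input reads. Random libraries had three technical output replicates.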

Substance | amyloid nucleation score
SNCLDMTVTAW | inactive
SNDTLS | 0.265 ± 0.39
SNEVYWQ | 1.25 ± 0.3
SNEYYPSLHYRVSVGKGLGR | -0.154 ± 1.2
SNFSG | 0.446 ± 0.66
SNGHNAILVA | inactive
SNIFNMGY | 0.187 ± 0.35
SNKTSKDGCEFQVVQLVQRV | -0.059 ± 0.33
SNLVGEVYCNL | 0.914 ± 0.57
SNMNAFYTLEHVMPAKFEIS | 1.07 ± 0.33
SNQSDLMLLMENMIDYMKSL | 1.32 ± 0.39
SNQTLPWYK | 0.043 ± 0.53
SNSSMWAYRVC | 0.497 ± 0.74
SNVVNGLDTYSQPGKGWCVR | 0.581 ± 0.37
SPMMVNVYATDDVDLPSWLM | -0.293 ± 0.47
SPRYQSVWEFVSFQDCTSRW | 0.118 ± 1.2
SQNVPDCVLKTLRFDVPCCR | 1.14 ± 0.4
SQRSMRRRRVRVIKDARYNW | 0.224 ± 0.48
SRCNHICHNYISMFLINCEL | 5.71 ± 0.061
SRCRGSYTSSNSYWPAGDPM | -0.777 ± 1.7
SRDRKVYLAYVYVYTRNVQT | 0.683 ± 0.34

Substance | amyloid nucleation score
SRGPRFDCPMLVTVPSTSLE | -1.1 ± 2.4
SRHVLLPISFGTV | 0.377 ± 0.61
SRIAMS | 0.368 ± 1
SRLEHRFLICNPELYVNFFM | 6.799 ± 0.047
SRLMLFQIFDAKQIDVNDM | 5.03 ± 0.071
SRLRLGIRTDLG | 0.218 ± 0.54
SRMWMFFDCIISIINMAEDT | 7.449 ± 0.051
SRPDVLYCDIFHFRHQILSF | -0.173 ± 0.75
SRSGSLKCRGAQGFTCY | 0.564 ± 0.52
SRSLPLHCMRHGVRRTGRMA | 0.668 ± 0.57
SRVSNCISLVMYKAKLCSIR | 0.644 ± 0.5
SRVVSYSL | -0.5 ± 0.41
SRYRA | 5.11 ± 0.076
SRYSNDLSDIMGDDESRSAH | 0.136 ± 0.28
SRYWKFRCTFSTKFESTKRS | 3.95 ± 0.17
SRYYASYFGIG | 0.034 ± 0.97
SSCGFMRNVIITMHKADIDR | inactive
SSCVTFSYMKSVFRFLPCWW | 1.96 ± 0.092
SSDSVSLYYLISYTPFGRFN | inactive
SSFCRLLNIMYSRWGGLGTY | inactive
SSFKWLAASWLQGALHTMRG | -0.348 ± 0.79

Substance | amyloid nucleation score
SSFLFSFWGAIGSIKSTFFW | -0.054 ± 0.24
SSFRLHR | inactive
SSFRLQALPVEFHGVNYHLA | 0.182 ± 0.92
SSFYTRFWVGSHMCFAGMPK | 0.203 ± 1.2
SSGFKSAPFSFLRLFLHISR | -1.47 ± 2.4
SSGYGECAFVT | -0.055 ± 0.33
SSIAAIVM | 0.723 ± 0.41
SSKYTCFSDYKKCVYTLWRL | 0.292 ± 0.6
SSLQPLIFMRSIHLIVW | 0.265 ± 0.75
SSLWTCREVTDIFIHNCAMI | 1.21 ± 0.79
SSNLRKTFMSAMHVSSCMV | 0.396 ± 0.56
SSNRLSSMQG | 1.09 ± 0.38
SSNSPCMPVRRTADNPSPYA | 0.239 ± 0.51
SSNWLRY | 0.692 ± 0.66
SSPRTLRGLIYGRIKYYVLE | 1.84 ± 0.35
SSRFDSLFVNNIMIFWVSKF | 5.015 ± 0.048
SSRGRPLQPSIQIKYSFVMY | 4.13 ± 0.095
SSRYFLFLAHTHWLCTMTCP | -0.064 ± 0.8
SSSRV | 0.111 ± 0.42
SSSSYNSR | 0.97 ± 0.62
SSSVCPLHSADSCVSGISAD | 1.73 ± 0.64
